In experiment [1] the target is T1, cohesin trimer (Smc1-Smc3-Scc1) (S. cerevisiae (budding yeast), UniProt P32908 1-1225; P47037 1-1230; Q12158 1-566).
T1 construct: Smc1, cohesin subunit, budding yeast; Smc3, cohesin subunit, budding yeast; Scc1, cohesin subunit, budding yeast; source: purified following the same protocol as cohesin tetramers (IgG agarose, 3C protease cleavage); copies: + +
The experiment can be described thus: pull-down; Flag-tagged Mrc1 (200-600 nM) held on anti-Flag M2 magnetic beads; with or without a first incubation with Tof1-Csm3, then cohesin (tetramer, trimer or Smc1-Smc3 dimer) or GINS; interaction buffer with 100 mM potassium glutamate; elution with 3x Flag peptide or SDS sample buffer; Coomassie staining; benzonase or NaCl added where indicated. Conditions: both partners purified.

The target of another experiment is T2, Smc1-Smc3 dimer (S. cerevisiae (budding yeast), UniProt P32908 1-1225; P47037 1-1230).
T2 construct: Smc1, cohesin subunit, budding yeast; Smc3, cohesin subunit, budding yeast; also called SMC dimer; SMC dimers (Smc1-Smc3); source: purified following the same protocol as cohesin tetramers (IgG agarose, 3C protease cleavage); not shown: Protein A, C-terminal, cleaved
The experiment is described as above. Conditions: both partners purified.

T2 sequence (P32908 whole entry, chain 1 of 2): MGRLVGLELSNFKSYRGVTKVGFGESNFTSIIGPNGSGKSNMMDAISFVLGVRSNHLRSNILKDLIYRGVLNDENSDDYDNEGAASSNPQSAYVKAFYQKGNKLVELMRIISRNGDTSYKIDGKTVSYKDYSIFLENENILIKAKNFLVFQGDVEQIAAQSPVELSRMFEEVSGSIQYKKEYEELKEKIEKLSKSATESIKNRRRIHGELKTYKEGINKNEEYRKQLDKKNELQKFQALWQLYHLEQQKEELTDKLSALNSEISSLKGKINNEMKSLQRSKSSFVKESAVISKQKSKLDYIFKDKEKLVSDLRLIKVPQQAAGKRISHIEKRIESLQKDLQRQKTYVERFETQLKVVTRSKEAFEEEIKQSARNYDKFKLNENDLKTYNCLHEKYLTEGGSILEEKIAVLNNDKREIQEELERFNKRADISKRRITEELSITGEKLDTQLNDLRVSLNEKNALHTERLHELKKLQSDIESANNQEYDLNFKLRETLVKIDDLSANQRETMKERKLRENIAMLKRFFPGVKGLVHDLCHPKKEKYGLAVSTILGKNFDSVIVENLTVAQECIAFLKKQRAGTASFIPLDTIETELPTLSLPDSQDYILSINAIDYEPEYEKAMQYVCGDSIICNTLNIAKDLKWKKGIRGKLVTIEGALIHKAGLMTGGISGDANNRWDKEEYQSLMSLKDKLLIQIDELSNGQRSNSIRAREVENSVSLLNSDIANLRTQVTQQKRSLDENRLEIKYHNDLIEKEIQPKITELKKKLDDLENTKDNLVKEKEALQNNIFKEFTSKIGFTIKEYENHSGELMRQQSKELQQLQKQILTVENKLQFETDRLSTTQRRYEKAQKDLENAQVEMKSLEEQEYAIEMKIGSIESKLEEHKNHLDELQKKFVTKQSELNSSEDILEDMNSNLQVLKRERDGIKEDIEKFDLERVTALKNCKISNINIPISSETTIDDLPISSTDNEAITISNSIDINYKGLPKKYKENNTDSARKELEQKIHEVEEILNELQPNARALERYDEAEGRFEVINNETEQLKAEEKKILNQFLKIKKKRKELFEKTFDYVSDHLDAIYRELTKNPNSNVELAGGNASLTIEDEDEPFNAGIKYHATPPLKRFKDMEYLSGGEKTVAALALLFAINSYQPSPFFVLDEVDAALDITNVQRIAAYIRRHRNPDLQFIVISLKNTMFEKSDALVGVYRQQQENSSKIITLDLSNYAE
T2 sequence (P47037 whole entry, chain 2 of 2): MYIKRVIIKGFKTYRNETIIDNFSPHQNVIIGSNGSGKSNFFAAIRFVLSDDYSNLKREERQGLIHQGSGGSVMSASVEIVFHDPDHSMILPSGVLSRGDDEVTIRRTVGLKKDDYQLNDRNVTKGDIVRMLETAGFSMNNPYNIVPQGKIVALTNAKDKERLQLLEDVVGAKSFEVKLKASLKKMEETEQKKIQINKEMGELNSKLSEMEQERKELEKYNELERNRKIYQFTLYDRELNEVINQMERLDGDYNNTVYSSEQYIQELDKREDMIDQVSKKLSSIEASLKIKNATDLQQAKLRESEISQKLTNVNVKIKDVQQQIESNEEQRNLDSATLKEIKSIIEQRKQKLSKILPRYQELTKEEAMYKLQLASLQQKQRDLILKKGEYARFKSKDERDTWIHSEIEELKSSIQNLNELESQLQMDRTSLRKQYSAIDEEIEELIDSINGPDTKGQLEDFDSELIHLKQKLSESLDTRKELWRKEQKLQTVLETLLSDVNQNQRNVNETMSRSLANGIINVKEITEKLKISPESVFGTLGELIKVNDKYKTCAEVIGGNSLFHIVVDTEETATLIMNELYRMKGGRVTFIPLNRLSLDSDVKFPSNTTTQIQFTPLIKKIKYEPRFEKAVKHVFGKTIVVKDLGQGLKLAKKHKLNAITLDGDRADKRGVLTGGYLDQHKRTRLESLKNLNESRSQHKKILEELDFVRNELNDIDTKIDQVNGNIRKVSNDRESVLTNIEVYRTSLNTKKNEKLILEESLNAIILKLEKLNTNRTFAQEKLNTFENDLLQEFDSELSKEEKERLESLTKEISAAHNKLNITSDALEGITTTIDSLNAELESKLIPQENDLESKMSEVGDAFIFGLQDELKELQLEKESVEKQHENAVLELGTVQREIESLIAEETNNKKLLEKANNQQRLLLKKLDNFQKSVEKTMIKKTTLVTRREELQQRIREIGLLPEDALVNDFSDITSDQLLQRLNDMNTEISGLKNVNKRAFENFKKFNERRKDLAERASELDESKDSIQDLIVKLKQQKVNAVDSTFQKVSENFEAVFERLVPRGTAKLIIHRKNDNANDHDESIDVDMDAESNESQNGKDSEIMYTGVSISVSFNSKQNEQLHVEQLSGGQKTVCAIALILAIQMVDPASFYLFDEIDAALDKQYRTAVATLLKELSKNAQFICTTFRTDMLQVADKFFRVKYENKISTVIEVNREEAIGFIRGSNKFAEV
T1 sequence (P32908 whole entry, chain 1 of 3): as the sequence (P32908 whole entry, chain 1 of 2) above
T1 sequence (P47037 whole entry, chain 2 of 3): as the sequence (P47037 whole entry, chain 2 of 2) above
T1 sequence (Q12158 whole entry, chain 3 of 3): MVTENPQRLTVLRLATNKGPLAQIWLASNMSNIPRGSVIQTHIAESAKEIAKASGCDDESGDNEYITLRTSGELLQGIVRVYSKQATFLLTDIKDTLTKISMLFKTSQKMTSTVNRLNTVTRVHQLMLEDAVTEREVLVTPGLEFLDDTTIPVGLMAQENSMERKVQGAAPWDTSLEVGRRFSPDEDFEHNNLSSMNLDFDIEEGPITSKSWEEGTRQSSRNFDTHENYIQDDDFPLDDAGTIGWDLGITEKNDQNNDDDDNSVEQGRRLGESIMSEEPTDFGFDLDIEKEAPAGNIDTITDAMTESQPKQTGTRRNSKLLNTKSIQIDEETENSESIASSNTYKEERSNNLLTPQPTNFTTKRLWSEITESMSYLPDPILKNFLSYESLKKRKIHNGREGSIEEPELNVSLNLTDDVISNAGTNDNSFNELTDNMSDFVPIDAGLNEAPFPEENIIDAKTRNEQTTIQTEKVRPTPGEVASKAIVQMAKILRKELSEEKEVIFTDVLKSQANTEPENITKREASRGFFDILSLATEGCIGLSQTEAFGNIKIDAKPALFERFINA

B1: Mrc1 (natural protein, S. cerevisiae (budding yeast), UniProt P25588 1-1096, looked up)
chain: MDDALHALSSLTAKKRTTTYKKVAVPILDENDNTNGNGPNDIDNPPELTGNGFLFANATLNRVKNRLEGKKAPEQNHNNGKDRSENSLPTQLISNLYDGGEELEKSEVKDNSYSEKNVSSSFTQTQRIPVSIQQDKVFNVPIHSVNDGKPTQLIKEDGLVNETSQALKTPLTTGRPGATQRIDSSGATSQTQPIKSIEPQSQIITTSSNHSNALSPKIPIIPTELIGTSPLFQSIQNRGPDTQMDVPPQTAHDEDKTQAIGIPQATHQEQKTQIDTVAQTLQDEVPHTLKIREIQSELASEDSKREKARNVEYKKPQKPIPTKKFFSKESFLADFDDSSSNEDDDIKLENAHPKPVQNDDELHENKSVELNLTDETRINEKRVPLLSSYANNLKREIDSSKCITLDLDSDSDEYGDDDMDSIKLSKDESVLPISQLSKATILNLKARLSKQNQKLSQRPNKSKDPKVDHNVLLNTLRKASRKQILDHQKEVIETKGLKLEDMAKEKEIVENLLEQEILRNKRIRQKEKRREKLEENDFQLNAHDSGSDSGSESSGFALSGNEIADYESSGSENDNRRESDSEKEDDEIILKQKKSHHVKHIINESDSDTEVEAKPKEKADESLPKRIAINLGHYGDNIGEDTDKFQETNVLDTQNIEEVMAERNTIENEVKDDVYVNEEADEAIRRQLIDKEKLQLKQKEKEHEAKIKELKKRGVTNFFEMEAEESEDEWHGIGGADGEGSDDYDSDLEKMIDDYSKNNFNPHEIREMLAAENKEMDIKMINKILYDIKNGGFRNKRAKNSLELELSDDDEDDVLQQYRLKRRELMRKRRLEIGDDAKLVKNPKSSAFFESMVEDIIEYKNPFGAEEEYNLDITSTATDLDTQDNSINVGDNTGNNEQKPVDQKNKKVIISEDFVQKSLSFLKSNNYEDFETDKELSRIQHGNDEAIEDLYTLKQNSSIKSFTNSQTDSTTSKTVNTIIDLEKRPEDEDEVENGDTSLVGVFKHPSIIKSFASRTDINDKFKEGNKTVKILKSYKTVGSSKASITYMGKTRKLIAPKRKTEGSHRYHHDHHNKKMKMKTKTKSNKLFESGQDSFDN
notes: Mrc1, budding yeast; also called Flag-tagged Mrc1; source: purified as previously described (Yeeles et al. 2017)
As for B1, the binding result (in experiment [1]; with Smc1-Smc3 dimer) was “binds” throughout.

These data come from PMC10247859, “Replisome-cohesin interactions provided by the Tof1-Csm3 and Mrc1 cohesion establishment factors” (Chromosoma, 2023).
